Measurements reported in article PMC10804554, “The DNA damage sensor ATM kinase interacts with the p53 mRNA and guides the DNA damage response pathway” (Molecular Cancer, 2024).

B1: recombinant FAT domain of ATM (rFAT), his-tagged (domain or fragment)
chain: EVAKVAQSCAAHFTALLYAEIYADKKSMDDQEKRSLAFEEGSQSTTISSLSEKSKEETGISLQDLLLEIYRSIGEPDSLYGCGGGKMLQPITRLRTYEHEAMWGKALVTYDLETAIPSSTRQAGIIQALQNLGLCHILSVYLKGLDYENKDWCPELEELHYQAAWRNMQWDHCTSVSKEVEGTSYHESLYNALQSLRDREFSTFYESLKYARVKEVEEMCKRSLESVYSLYPTLSRLQAIGELESIGELFSRSVTHRQLSEVYIKWQKHSQLLKDSDFSFQEPIMALRTVILEILMEKEMDNSQRECIKDILTKHLVELSILARTFKNTQLPERAIFQIKQYNSVSCGVSEWQLEEAQVFWAKKEQSLALSILKQMIKKLDASCAANNPSLKLTYTECLRVCGNWLAETCLENPAVIMQTYLEKAVEVAGNYDGESSDELRNGKMKAFLSLARFSDTQYQRIENYMKSSEFENKQALLKRAKEEVGLLREHKIQTNRYTVKVQRELELDELALRALKEDRKRFLCKAVENYINCLLSGEEHDMWVFRLCSLWLENSGVSEVNGMMKRDGMKIPTYKFLPLMYQLAARMGTKMMGGLGFHEVLNNLISRISMDHPHHTLFIILALANA
B2: recombinant PI3K domain of ATM (rPI3K), his-tagged (domain or fragment)
chain: FKAEFRLAGGVNLPKIIDCVGSDGKERRQLVKGRDDLRQDAVMQQVFQMCNTLLQRNTETRKRKLTICTYKVVPLSQRSGVLEWCTGTVPIGEFLVNNEDGAHKRYRPNDFSAFQCQKKMMEVQKKSFEEKYEVFMDVCQNFQPVFRYFCMEKFLDPAIWFEKRLAYTRSVATSSIVGYILGLGDRHVQNILINEQSAELVHIDLGVAFEQGKILPTPETVPFRLTRDIVDGMGITGVEGVFRRCCEKTMEVMRNSQETLLTIVEVLLYDPLFDWTMNPLKALYLQQRPEDETELHPTLNADDQECKRNLSDI

Biological target: T1, recombinant MDM2 protein (UniProt Q00987 1-491)
T1 construct: MDM2 E3 ubiquitin ligase, recombinant version used in sandwich ELISA; Source, limits and tags of the recombinant MDM2 may stand in Supplementary Methods; source: recombinant
T1 sequence (Q00987 whole entry): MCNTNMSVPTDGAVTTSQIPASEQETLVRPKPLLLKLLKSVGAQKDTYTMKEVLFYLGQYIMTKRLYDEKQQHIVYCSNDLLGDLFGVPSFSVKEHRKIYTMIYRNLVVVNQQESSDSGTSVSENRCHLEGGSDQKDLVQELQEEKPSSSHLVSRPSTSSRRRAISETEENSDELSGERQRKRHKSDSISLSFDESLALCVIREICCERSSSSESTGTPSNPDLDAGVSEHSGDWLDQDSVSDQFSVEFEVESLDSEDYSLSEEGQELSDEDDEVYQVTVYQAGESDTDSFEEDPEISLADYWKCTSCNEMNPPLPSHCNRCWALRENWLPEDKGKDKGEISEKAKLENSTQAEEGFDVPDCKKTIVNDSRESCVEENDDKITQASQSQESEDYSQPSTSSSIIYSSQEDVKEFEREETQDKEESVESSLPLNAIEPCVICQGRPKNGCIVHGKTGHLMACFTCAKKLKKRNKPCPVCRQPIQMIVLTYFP
Assay: ELISA; protein-protein sandwich ELISA on 96-well plates with his-tagged recombinant FAT or PI3K domain and recombinant MDM2; details in Supplementary Methods

Row | Binder | Kd [nM]
1 | B1 | 30
2 | B2 | 186
